The chains are these.
B1: Ab4 (antibody, human IgG1, V domains shown)
VH: QVQLVQSGAEVKKTGSSVKVSCKASGYTFTDHAIHWVRQAPGQALEWMGHFSPGNTDIKYNDKFKGRVTLTVDRSMSTAYMELSSLRSEDTAMYYCKTSTFFFDYWGQGTMVTVSS
VL: DIVMTQSPLSLPVTPGEPASISCKSSQSLLNSGDQKNYLTWYLQKPGQSPQLLIYWASTRESGVPDRFSGSGSGTDFTLKISRVEAEDVGVYYCQNDYSYPLTFGGGTKVEIK
notes: Expressed as human IgG1/kappa from pFUSE-CHIg-hG1 and pFUSE2-CLIg-hk vectors; also called 5E5RHA8 / 5E5RKB
B2: Ab1 (antibody, V domains shown)
VH: QVQLVQSGAEVKKTGSSVKVSCKASGYTFTDHAIHWVRQAPGQALEWMGHFSPGNTDIKYNDKFKGRVTLTVDRSMSTAYMELSSLRSEDTAMYYCKTSTFFFDYWGQGTMVTVSS
VL: DIVMTQSPDSLAVSLGERATINCKSSQSLLNSGDQKNYLTWYQQKPGQPPKLLIYWASTRESGVPDRFSGSGSGTDFTLTISSLQAEDVAVYYCQNDYSYPLTFGQGTKVEIK
notes: Expressed as human IgG1/kappa from pFUSE-CHIg-hG1 and pFUSE2-CLIg-hk vectors; also called 5E5RHA8 / 5E5RKA
B3: Ab5 (antibody, human IgG1, V domains shown)
VH: EVQLVQSGAEVKKPGESLKISCKISGYIFTDHAIHWVRQMPGKGLEWMGHFSPGNTDIKYNDKFKGQVTLSVDRSINTAYLQWSSLKASDTAIYFCKTSTFFFDYWGQGTRVTVSS
VL: DIVMTQSPLSLPVTPGEPASISCKSSQSLLNSGDQKNYLTWYLQKPGQSPQLLIYWASTRESGVPDRFSGSGSGTDFTLKISRVEAEDVGVYYCQNDYSYPLTFGGGTKVEIK
notes: Expressed as human IgG1/kappa from pFUSE-CHIg-hG1 and pFUSE2-CLIg-hk vectors; also called 5E5RHB10 / 5E5RKB
B4: Ab6 (antibody, human IgG1, V domains shown)
VH: EVQLVESGAEVKKPGASVEVSCQASGYTFTDHAIHWVRQAPGQGLEWMGHFSPGNTDIKYNDKFKGRVTMTVDRSINTAYMELRRLRSDDTAVYYCKTSTFFFDYWGQGTMVTVSS
VL: DIVMTQSPLSLPVTPGEPASISCKSSQSLLNSGDQKNYLTWYLQKPGQSPQLLIYWASTRESGVPDRFSGSGSGTDFTLKISRVEAEDVGVYYCQNDYSYPLTFGGGTKVEIK
notes: Expressed as human IgG1/kappa from pFUSE-CHIg-hG1 and pFUSE2-CLIg-hk vectors; also called 5E5RHC9 / 5E5RKB
B5: Ab2 (antibody, V domains shown)
VH: EVQLVQSGAEVKKPGESLKISCKISGYIFTDHAIHWVRQMPGKGLEWMGHFSPGNTDIKYNDKFKGQVTLSVDRSINTAYLQWSSLKASDTAIYFCKTSTFFFDYWGQGTRVTVSS
VL: DIVMTQSPDSLAVSLGERATINCKSSQSLLNSGDQKNYLTWYQQKPGQPPKLLIYWASTRESGVPDRFSGSGSGTDFTLTISSLQAEDVAVYYCQNDYSYPLTFGQGTKVEIK
notes: Expressed as human IgG1/kappa from pFUSE-CHIg-hG1 and pFUSE2-CLIg-hk vectors; also called 5E5RHB10 / 5E5RKA
B6: Ab3 (antibody, V domains shown)
VH: EVQLVESGAEVKKPGASVEVSCQASGYTFTDHAIHWVRQAPGQGLEWMGHFSPGNTDIKYNDKFKGRVTMTVDRSINTAYMELRRLRSDDTAVYYCKTSTFFFDYWGQGTMVTVSS
VL: DIVMTQSPDSLAVSLGERATINCKSSQSLLNSGDQKNYLTWYQQKPGQPPKLLIYWASTRESGVPDRFSGSGSGTDFTLTISSLQAEDVAVYYCQNDYSYPLTFGQGTKVEIK
notes: Expressed as human IgG1/kappa from pFUSE-CHIg-hG1 and pFUSE2-CLIg-hk vectors; also called 5E5RHC9 / 5E5RKA
B7: Mouse 5E5 (antibody, V domains shown)
VH: QVQLQQSDAELVKPGSSVKISCKASGYTFTDHAIHWVKQKPEQGLEWIGHFSPGNTDIKYNDKFKGKATLTVDRSSSTAYMQLNSLTSEDSAVYFCKTSTFFFDYWGQGTTLTVSS
VL: DIVMTQSPSSLTVTAGEKVTMICKSSQSLLNSGDQKNYLTWYQQKPGQPPKLLIFWASTRESGVPDRFTGSGSGTDFTLTISSVQAEDLAVYYCQNDYSYPLTFGAGTKLELK
notes: V regions were subcloned into pFUSE-CHIg-hG1 (human IgG1) and pFUSE2-CLIg-hk (human kappa) vectors and expressed in HEK293 cells; also called mouse 5E5 antibody; 5E5VH/5E5VK

This passage reports EC50 results from US20170267778A1 (ADC THERPEUTICS S A, published 2017).

As usually defined, the EC50 is the concentration at which the effect is half-maximal. Lower therefore signals an effect from little substance.

For this experiment, the target named is T1, Tn-MUC1 on ZR-75-1 cells (human, UniProt P15941 24-1255, Tn glycoform (GalNAcα1-O-Ser/Thr) as expressed by the cells).
T1 construct: whole, on cells; also called ZR-75-1 cell line, which expresses Tn-MUC1; Tn-MUC1(+ve) cell line ZR75-1
T1 sequence (P15941 24-1255): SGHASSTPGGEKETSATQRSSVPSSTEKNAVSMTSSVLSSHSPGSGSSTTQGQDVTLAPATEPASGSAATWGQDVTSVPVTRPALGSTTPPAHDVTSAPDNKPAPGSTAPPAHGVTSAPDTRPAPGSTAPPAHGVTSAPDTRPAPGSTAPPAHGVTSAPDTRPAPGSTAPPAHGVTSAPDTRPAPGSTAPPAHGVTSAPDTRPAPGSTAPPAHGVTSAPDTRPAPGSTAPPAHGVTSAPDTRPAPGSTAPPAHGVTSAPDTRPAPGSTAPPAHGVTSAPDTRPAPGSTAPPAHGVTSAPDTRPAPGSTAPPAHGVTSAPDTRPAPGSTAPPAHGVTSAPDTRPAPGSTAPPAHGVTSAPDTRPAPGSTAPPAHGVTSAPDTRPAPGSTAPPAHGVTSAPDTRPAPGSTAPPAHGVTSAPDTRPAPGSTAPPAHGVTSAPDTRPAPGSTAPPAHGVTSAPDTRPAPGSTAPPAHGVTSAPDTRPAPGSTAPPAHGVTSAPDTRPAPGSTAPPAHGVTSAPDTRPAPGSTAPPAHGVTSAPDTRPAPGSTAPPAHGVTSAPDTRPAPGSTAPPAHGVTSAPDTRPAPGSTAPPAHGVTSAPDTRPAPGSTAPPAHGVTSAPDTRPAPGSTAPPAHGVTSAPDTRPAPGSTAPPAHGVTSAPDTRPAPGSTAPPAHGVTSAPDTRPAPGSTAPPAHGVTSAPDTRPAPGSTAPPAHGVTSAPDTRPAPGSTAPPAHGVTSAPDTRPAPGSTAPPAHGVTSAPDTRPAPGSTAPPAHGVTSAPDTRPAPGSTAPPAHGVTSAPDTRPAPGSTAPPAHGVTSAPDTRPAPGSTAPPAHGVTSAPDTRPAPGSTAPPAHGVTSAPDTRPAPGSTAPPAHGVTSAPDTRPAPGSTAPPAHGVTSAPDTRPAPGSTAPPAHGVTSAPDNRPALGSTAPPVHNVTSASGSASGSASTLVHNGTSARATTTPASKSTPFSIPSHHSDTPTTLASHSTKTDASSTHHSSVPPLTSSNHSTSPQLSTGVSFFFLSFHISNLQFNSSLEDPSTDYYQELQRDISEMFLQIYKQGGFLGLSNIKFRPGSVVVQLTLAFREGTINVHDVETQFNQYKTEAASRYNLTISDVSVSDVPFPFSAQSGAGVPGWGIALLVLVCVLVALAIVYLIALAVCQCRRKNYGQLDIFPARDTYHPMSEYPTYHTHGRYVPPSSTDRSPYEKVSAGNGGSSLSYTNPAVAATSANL
Nature of the experiment: flow cytometry on ZR-75-1 cells (protocol 6). On the procedure: Exponentially growing cells are suspended by incubation with cell dissociation buffer enzyme-free, Hanks-based (Gibco 13150-016) following the manufacturer's instructions. A cell count/viability is done on a dilution of 10 ul cells+Trypan Blue, 10 ul, with a haemocytomer. The suspension is centrifuged and the cell pellet re-suspended in binding buffer at 3×10̂6 per ml. If significant levels of aggregates are present in the cell count, the suspension is filtered to remove aggregates. The cell suspension is dispensed (50 ul/well) in 96 well U-bottom plates and cooled on ice for 10 minutes. Primary antibody (50 ul/well) diluted in binding buffer (typically 1 ug per ml or less) is added to each well and incubated at 4° C. for 1 hour. The microplate is centrifuged 5 min at 300-400 g at 4° C., flicked to remove the supernatant and then the cell pellet re-suspended in 200 uL of wash buffer (PBS, 0.1% sodium azide). Centrifugation and re-suspension are done 4 times in all. After the last centrifugation, cells are re-suspended in 50 uL of binding buffer containing the biotin labelled conjugate 1:250 (kept at −20 C: Biotin-SP-AffiniPure F(ab′)2 Fragment Goat antihuman IgG (H+L); Jackson 109-066-088). Cells are incubated for 1 hour at 4 C, then washed 4 times as before. Cells are resuspended in 50 ul of binding buffer containing Streptavidin, Alexa Fluor® 488 conjugate (Life Technologies s11223) diluted 1:250 and Fixable Viability Dye eFluor@780 (eBioscience 65-0865) diluted 1:2000, The cells are incubated at 4° C. for 1 hour and then washed 3 times, as above. Cells are then re-suspended in PBS if reading immediately or fixed in 100 ul of paraformaldehyde (2% (w/v) in PBS) and analysed with by flow cytometer (Accuri C6), gating on live cells which have a lower Fixable Viability Dye MFI compared to dead cells.
IgG binding potency to Tn-MUC1 was measured as per protocol 4 and binding to the ZR-75-1 cell line, which expresses Tn-MUC1, was measured as per protocol 6.
(In general: A flow cytometer gives signals particle by particle.)
B1 returned an EC50 of 0.0423 µg/mL. Then B2, with 0.00986 µg/mL; and B3, with 0.0184 µg/mL. For the molecule B4, the EC50 is 0.0413 µg/mL. Then B5, with 0.0168 µg/mL. In turn, B6 registered an EC50 of 0.0268 µg/mL.

Molecule B7 gave an EC50 of 0.0283 µg/mL.
